Data as given in article PMC10374971, “In vivo and in vitro characterizations of melibiose permease (MelB) conformation-dependent nanobodies reveal sugar-binding mechanisms” (The Journal of Biological Chemistry, 2023).

Columns and labels:
[1] = molecular target: MelBSt/Nb733 complex, formed beforehand (MelBSt 50 μM with Nb733 75 μM, molar ratio 1:1.5) (Salmonella enterica serovar Typhimurium | Lama glama) (UniProt P30878); assay: ITC; EIIA^Glc (450 μM) in the syringe, MelBSt (50 μM), free or complexed with Nb733 (75 μM), in the sample cell; 20 mM Tris-HCl pH 7.5, 100 mM NaCl, 0.01% DDM, 10% glycerol; 25 °C; one-site independent-binding model
[2] = molecular target: MelBSt (Salmonella enterica serovar Typhimurium) (UniProt P30878); settings: cited from earlier work
[3] = molecular target: T1, Salmonella enterica serovar Typhimurium melibiose permease (MelBSt), wild type (Salmonella enterica serovar Typhimurium, UniProt P30878 6-476); assay: ITC; EIIA^Glc (450 μM) in the syringe, MelBSt (50 μM), free or complexed with Nb733 (75 μM), in the sample cell; 20 mM Tris-HCl pH 7.5, 100 mM NaCl, 0.01% DDM, 10% glycerol; 25 °C; one-site independent-binding model; settings: both partners purified
T1 construct: melibiose permease MelB of Salmonella enterica serovar Typhimurium, wild type; Membrane protein in detergent (0.01% DDM) in the ITC; also called WT MelBSt; source: E. coli DW2, plasmid pK95 ΔAH/MelBSt/CHis10
T1 sequence (P30878 6-476): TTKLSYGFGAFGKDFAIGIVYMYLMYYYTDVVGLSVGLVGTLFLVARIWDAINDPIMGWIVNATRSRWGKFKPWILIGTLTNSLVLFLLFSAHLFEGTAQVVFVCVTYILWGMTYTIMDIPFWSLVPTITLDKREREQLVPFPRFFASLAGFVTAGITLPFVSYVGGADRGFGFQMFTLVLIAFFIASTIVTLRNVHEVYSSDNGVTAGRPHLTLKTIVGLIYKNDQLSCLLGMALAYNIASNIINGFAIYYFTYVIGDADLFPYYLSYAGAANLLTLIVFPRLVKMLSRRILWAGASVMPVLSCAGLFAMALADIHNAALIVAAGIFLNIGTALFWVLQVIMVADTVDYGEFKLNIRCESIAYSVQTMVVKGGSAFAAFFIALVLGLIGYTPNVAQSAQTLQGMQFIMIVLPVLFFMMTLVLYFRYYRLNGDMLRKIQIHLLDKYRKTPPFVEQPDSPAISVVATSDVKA

Sequence of MelBSt/Nb733 complex, formed beforehand (MelBSt 50 μM with Nb733 75 μM, molar ratio 1:1.5) (Salmonella enterica serovar Typhimurium | Lama glama) (P30878 whole entry, looked up, one chain of several): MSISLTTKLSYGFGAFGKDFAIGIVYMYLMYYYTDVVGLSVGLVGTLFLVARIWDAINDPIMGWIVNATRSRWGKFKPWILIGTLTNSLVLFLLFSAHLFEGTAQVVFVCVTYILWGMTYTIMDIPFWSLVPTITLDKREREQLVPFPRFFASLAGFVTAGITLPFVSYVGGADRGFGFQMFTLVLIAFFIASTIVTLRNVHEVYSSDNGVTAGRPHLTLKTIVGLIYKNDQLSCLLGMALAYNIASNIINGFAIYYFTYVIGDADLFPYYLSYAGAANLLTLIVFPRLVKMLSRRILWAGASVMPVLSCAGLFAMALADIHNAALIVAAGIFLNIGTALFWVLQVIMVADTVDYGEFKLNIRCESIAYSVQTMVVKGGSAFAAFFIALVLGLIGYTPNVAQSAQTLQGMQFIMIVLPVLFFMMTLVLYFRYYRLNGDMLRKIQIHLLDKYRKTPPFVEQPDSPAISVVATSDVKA
Sequence of MelBSt (Salmonella enterica serovar Typhimurium) (P30878 whole entry): as the sequence (P30878 whole entry, looked up, one chain of several) above

EIIA^Glc of the glucose-specific phosphoenolpyruvate/sugar phosphotransferase system, unphosphorylated (from UniProt P69783 1-169) (natural protein)
Kd [1]: 8.12 mM
dH [1]: -6.75 kcal/mol
stoichiometry N [1]: 0.76

EIIAGlc (from UniProt P69783)
Kd [2]: 0.003 mM

B1: EIIA^Glc of the glucose-specific phosphoenolpyruvate/sugar phosphotransferase system, unphosphorylated (natural protein, UniProt P69783 1-169, looked up)
chain: MGLFDKLKSLVSDDKKDTGTIEIIAPLSGEIVNIEDVPDVVFAEKIVGDGIAIKPTGNKMVAPVDGTIGKIFETNHAFSIESDSGVELFVHFGIDTVELKGEGFKRIAEEGQRVKVGDTVIEFDLPLLEEKAKSTLTPVVISNMDEIKELIKLSGSVTVGETPVIRIKK
notes: regulatory enzyme EIIA^Glc of the glucose-specific phosphotransferase system, unphosphorylated; source: E. coli T7 Express, overexpressed, as described (24)
Kd [3]: 3.33 mM
dH [3]: -9.54 kcal/mol
stoichiometry N [3]: 0.81
